Measurements from article doi:10.1101/333286.

These substances were tested against F-actin (polymerized human platelet actin) (human) (UniProt P60709) (assay: co-sedimentation).

| Substance | percent of NMY-2 S1 fragment in the pellet with F-actin [%] |
| --- | --- |
| NMY-2(S1)-MLC4-MLC5 complex, NMY-2(R252A) S1 fragment (from UniProt G5EBY3 1-874; Q09510 1-172; Q9XVI9 1-142) | 42 |
| NMY-2(S1)-MLC4-MLC5 complex, NMY-2(S251A) S1 fragment (from UniProt G5EBY3 1-874; Q09510 1-172; Q9XVI9 1-142) | 91 |
| NMY-2(S1)-MLC4-MLC5 complex, wild-type NMY-2 S1 fragment (from UniProt G5EBY3 1-874; Q09510 1-172; Q9XVI9 1-142) | 66 |
